Target: cardiac protein phosphatase 1 (type 1 phosphatase activity of mouse hearts) (mouse)
Experiment: cell-based or functional assay

- type 1 phosphatase activity: 15 % decrease
Substance: constitutively active, truncated inhibitor-1 (I-T35D; AA 1-65), mouse (from UniProt Q9ERT9 1-65)

From patent publication US9114148
